This data set is described as follows: melting temperature; melt of duplexes. The settings on record: sodium 0.0675 M; strand 1 µM.
Turning to “CGACGTGCGCGATGTGCTG+CAGCACATTCAGCACGTCG ((((((((...((((((((+))))))))...))))))))”, the Tm came to 51.7 °C.

For “CGACGTGCACTATGTGCTG+CAGCACATGTCGCACGTCG ((((((((...((((((((+))))))))...))))))))”, the Tm is 46.4 °C.

Regarding “CGACGTGCGGAATGTGCTG+CAGCACATTCCGCACGTCG (((((((((((((((((((+)))))))))))))))))))”, the Tm came to 66.6 °C.

Consider “CGACGTGCCTAATGTGCTG+CAGCACATCGTGCACGTCG ((((((((...((((((((+))))))))...))))))))”, for which the Tm came to 43.1 °C.

Take “CGACGTGCATAATGTGCTG+CAGCACATGCTGCACGTCG (((((((((..((((((((+))))))))..)))))))))”: the Tm was 50 °C.

On to “CGACGTGCATCATGTGCTG+CAGCACATGGGGCACGTCG ((((((((..(((((((((+)))))))))..))))))))”, for which the Tm was 56.5 °C.

As to “CGACGTGCTGAATGTGCTG+CAGCACATACCGCACGTCG ((((((((.(.((((((((+)))))))).).))))))))”, the Tm was 51.3 °C.

Consider “CGACGTGCAGCATGTGCTG+CAGCACATACAGCACGTCG ((((((((.(.((((((((+)))))))).).))))))))”, for which the Tm is 48.3 °C.

On to “CGACGTGCGTAATGTGCTG+CAGCACATGTAGCACGTCG ((((((((...((((((((+))))))))...))))))))”, for which the Tm stood at 58.1 °C.

Regarding “CGACGTGCGTAATGTGCTG+CAGCACATTAAGCACGTCG ((((((((.((((((((((+)))))))))).))))))))”, the Tm is 56.9 °C.

Take “CGACGTGCGTGATGTGCTG+CAGCACATTATGCACGTCG ((((((((.(.((((((((+)))))))).).))))))))”: the Tm amounted to 54.5 °C.

With “CGACGTGCTAGATGTGCTG+CAGCACATGCTGCACGTCG ((((((((...((((((((+))))))))...))))))))”, the Tm was determined as 49.3 °C.

As for “CGACGTGCACGATGTGCTG+CAGCACATTACGCACGTCG ((((((((...((((((((+))))))))...))))))))”, the Tm is 46 °C.

In the case of “CGACGTGCCTTATGTGCTG+CAGCACATCATGCACGTCG ((((((((.(.((((((((+)))))))).).))))))))”, the melting temperature (Tm) worked out at 47.7 °C.

With “CGACGTGCAAAATGTGCTG+CAGCACATCATGCACGTCG (((((((((..((((((((+))))))))..)))))))))”, the Tm turned out to be 49.9 °C.

“CGACGTGCGTAATGTGCTG+CAGCACATCTAGCACGTCG ((((((((...((((((((+))))))))...))))))))”: the Tm came to 54.7 °C.

With “CGACGTGCCAAATGTGCTG+CAGCACATTGAGCACGTCG ((((((((..(((((((((+)))))))))..))))))))”, the Tm was 53.9 °C.

Consider “CGACGTGCTTCATGTGCTG+CAGCACATTACGCACGTCG ((((((((.(.((((((((+)))))))).).))))))))”, for which the Tm is 47.8 °C.

As to “CGACGTGCTCGATGTGCTG+CAGCACATCAGGCACGTCG ((((((((..(((((((((+)))))))))..))))))))”, the melting temperature (Tm) amounted to 55.4 °C.

For the substance “CGACGTGCGCGATGTGCTG+CAGCACATTACGCACGTCG (((((((((..((((((((+))))))))..)))))))))”, the Tm is 54.9 °C.

For “CGACGTGCCATATGTGCTG+CAGCACATACAGCACGTCG ((((((((..(((((((((+)))))))))..))))))))”, the Tm worked out at 49.9 °C.

“CGACGTGCAATATGTGCTG+CAGCACATATTGCACGTCG (((((((((((((((((((+)))))))))))))))))))”: the melting temperature (Tm) was 61.2 °C.

For the substance “CGACGTGCATAATGTGCTG+CAGCACATGGGGCACGTCG ((((((((...((((((((+))))))))...))))))))”, the Tm is 51.2 °C.

For the substance “CGACGTGCCGTATGTGCTG+CAGCACATATAGCACGTCG ((((((((..(((((((((+)))))))))..))))))))”, the Tm turned out to be 52.1 °C.

Turning to “CGACGTGCTGAATGTGCTG+CAGCACATTCAGCACGTCG (((((((((((((((((((+)))))))))))))))))))”, the Tm amounted to 64.4 °C.

In the case of “CGACGTGCATCATGTGCTG+CAGCACATTCCGCACGTCG ((((((((...((((((((+))))))))...))))))))”, the Tm stood at 46.6 °C.

For the substance “CGACGTGCTCGATGTGCTG+CAGCACATACGGCACGTCG ((((((((...((((((((+))))))))...))))))))”, the Tm was 50.5 °C.

With “CGACGTGCTCAATGTGCTG+CAGCACATGAAGCACGTCG (((((((((..((((((((+))))))))..)))))))))”, the Tm was 53.6 °C.

In the case of “CGACGTGCCGGATGTGCTG+CAGCACATCTAGCACGTCG ((((((((..(((((((((+)))))))))..))))))))”, the Tm stood at 55 °C.

On to “CGACGTGCCGGATGTGCTG+CAGCACATAAAGCACGTCG ((((((((...((((((((+))))))))...))))))))”, for which the melting temperature (Tm) stood at 50.2 °C.

In the case of “CGACGTGCATGATGTGCTG+CAGCACATGAGGCACGTCG ((((((((.(.((((((((+)))))))).).))))))))”, the Tm came out at 52.6 °C.

Turning to “CGACGTGCGTCATGTGCTG+CAGCACATCTCGCACGTCG (((((((((..((((((((+))))))))..)))))))))”, the Tm stood at 52.4 °C.

On to “CGACGTGCTTGATGTGCTG+CAGCACATTTCGCACGTCG ((((((((...((((((((+))))))))...))))))))”, for which the Tm was found to be 48.5 °C.

For “CGACGTGCTGCATGTGCTG+CAGCACATCATGCACGTCG ((((((((...((((((((+))))))))...))))))))”, the midpoint of thermal melting (Tm) stood at 52.1 °C.

With “CGACGTGCGTTATGTGCTG+CAGCACATTCAGCACGTCG ((((((((...((((((((+))))))))...))))))))”, the Tm was found to be 52.1 °C.

With “CGACGTGCTGGATGTGCTG+CAGCACATATTGCACGTCG ((((((((...((((((((+))))))))...))))))))”, the Tm was determined as 50.9 °C.

Turning to “CGACGTGCGAAATGTGCTG+CAGCACATGGGGCACGTCG ((((((((...((((((((+))))))))...))))))))”, the melting temperature (Tm) was 52 °C.

For the substance “CGACGTGCCCCATGTGCTG+CAGCACATGGTGCACGTCG ((((((((.((((((((((+)))))))))).))))))))”, the Tm worked out at 56.7 °C.

Turning to “CGACGTGCCTCATGTGCTG+CAGCACATGCAGCACGTCG ((((((((..(((((((((+)))))))))..))))))))”, the Tm was determined as 52.8 °C.

As to “CGACGTGCGTCATGTGCTG+CAGCACATAACGCACGTCG ((((((((((.((((((((+)))))))).))))))))))”, the Tm amounted to 58 °C.

Regarding “CGACGTGCTCAATGTGCTG+CAGCACATACAGCACGTCG (((((((((..((((((((+))))))))..)))))))))”, the Tm worked out at 50.7 °C.

“CGACGTGCCGCATGTGCTG+CAGCACATTGGGCACGTCG (((((((((..((((((((+))))))))..)))))))))”: the Tm came out at 54.4 °C.

With “CGACGTGCATTATGTGCTG+CAGCACATCTCGCACGTCG ((((((((...((((((((+))))))))...))))))))”, the Tm was 47.1 °C.

For “CGACGTGCGATATGTGCTG+CAGCACATCTCGCACGTCG ((((((((((.((((((((+)))))))).))))))))))”, the Tm stood at 57.2 °C.

“CGACGTGCACGATGTGCTG+CAGCACATAGCGCACGTCG ((((((((.(.((((((((+)))))))).).))))))))”: the midpoint of thermal melting (Tm) stood at 50.3 °C.

Regarding “CGACGTGCCGAATGTGCTG+CAGCACATGTCGCACGTCG ((((((((...((((((((+))))))))...))))))))”, the Tm was 51.4 °C.

“CGACGTGCTATATGTGCTG+CAGCACATCCTGCACGTCG ((((((((...((((((((+))))))))...))))))))”: the Tm came to 48.3 °C.

Take “CGACGTGCTTCATGTGCTG+CAGCACATGTCGCACGTCG ((((((((..(((((((((+)))))))))..))))))))”: the Tm turned out to be 52.2 °C.

Take “CGACGTGCAGAATGTGCTG+CAGCACATGCTGCACGTCG ((((((((((.((((((((+)))))))).))))))))))”: the Tm came to 58.6 °C.

For the substance “CGACGTGCGGGATGTGCTG+CAGCACATAGTGCACGTCG ((((((((...((((((((+))))))))...))))))))”, the Tm was found to be 47.9 °C.

As to “CGACGTGCCTCATGTGCTG+CAGCACATACAGCACGTCG ((((((((...((((((((+))))))))...))))))))”, the Tm came out at 48.3 °C.

Regarding “CGACGTGCCAAATGTGCTG+CAGCACATTTAGCACGTCG ((((((((.((((((((((+)))))))))).))))))))”, the Tm amounted to 54.4 °C.

On to “CGACGTGCATAATGTGCTG+CAGCACATCCGGCACGTCG ((((((((...((((((((+))))))))...))))))))”, for which the Tm turned out to be 48.3 °C.

Turning to “CGACGTGCTTGATGTGCTG+CAGCACATAAGGCACGTCG ((((((((.(.((((((((+)))))))).).))))))))”, the Tm came out at 52.3 °C.

In the case of “CGACGTGCACCATGTGCTG+CAGCACATGGGGCACGTCG ((((((((.((((((((((+)))))))))).))))))))”, the midpoint of thermal melting (Tm) was found to be 62.8 °C.

For “CGACGTGCCATATGTGCTG+CAGCACATTTAGCACGTCG ((((((((.(.((((((((+)))))))).).))))))))”, the midpoint of thermal melting (Tm) turned out to be 49.7 °C.

For the substance “CGACGTGCGAAATGTGCTG+CAGCACATAGTGCACGTCG ((((((((...((((((((+))))))))...))))))))”, the Tm turned out to be 46 °C.

For the substance “CGACGTGCCTTATGTGCTG+CAGCACATCGAGCACGTCG ((((((((...((((((((+))))))))...))))))))”, the Tm was determined as 48.3 °C.

Turning to “CGACGTGCCGGATGTGCTG+CAGCACATTGTGCACGTCG ((((((((...((((((((+))))))))...))))))))”, the Tm was 47.3 °C.

Turning to “CGACGTGCTGTATGTGCTG+CAGCACATGTTGCACGTCG ((((((((...((((((((+))))))))...))))))))”, the Tm was found to be 50.4 °C.

Regarding “CGACGTGCTCGATGTGCTG+CAGCACATCTGGCACGTCG ((((((((..(((((((((+)))))))))..))))))))”, the Tm came to 54.3 °C.

On to “CGACGTGCAACATGTGCTG+CAGCACATTAAGCACGTCG ((((((((...((((((((+))))))))...))))))))”, for which the melting temperature (Tm) was 49.2 °C.

“CGACGTGCCAAATGTGCTG+CAGCACATGCTGCACGTCG ((((((((...((((((((+))))))))...))))))))”: the melting temperature (Tm) is 48.2 °C.

Regarding “CGACGTGCTTTATGTGCTG+CAGCACATAACGCACGTCG ((((((((.((((((((((+)))))))))).))))))))”, the Tm came out at 53.6 °C.

“CGACGTGCATCATGTGCTG+CAGCACATGGAGCACGTCG ((((((((..(((((((((+)))))))))..))))))))”: the Tm was found to be 55.5 °C.

In the case of “CGACGTGCTGGATGTGCTG+CAGCACATTTAGCACGTCG (((((((((..((((((((+))))))))..)))))))))”, the Tm is 54 °C.

Broadly, the Tm is the temperature at the midpoint of the melting transition.

The values above are taken from the array DNA melting data of Ke et al..
